Experimental data: article PMC10540216, “Activity Guided Azide-methyllysine Photo-trapping for Substrate Profiling of Lysine Demethylases” (Journal of the American Chemical Society, 2023)

System: KDM4A-I71AzF
Test: CASI: photo-crosslinking with HEK293T cell extracts, StrepTactin enrichment and LC-MS/MS proteomics;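 also: lysates from HEK293T cells pretreated with a KDM4 inhibitor to raise proteome methylation, affinity-purified after ±UV, gel-resolved, trypsin-digested, with exclusive unique peptides per protein averaged per condition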
Format: binding, human
Conditions: sheet "Final results but with 0.01"

| Molecule | Fold change (+UV/-UV) |
| --- | --- |
| THIO_HUMAN (protein, UniProt P10599 2-105, looked up) Thioredoxin: VKQIESKTAFQEALDAAGDKLVVVDFSATWCGPCKMIKPFFHSLSEKYSNVIFLEVDVDDCQDVASECEVKCMPTFQFFKKGQKVGEFSGANKEKLEATINELV | 0.5 |
| KDM4C_HUMAN (protein, UniProt Q9H3R0 1-1056, looked up) Lysine-specific demethylase 4C: MEVAEVESPLNPSCKIMTFRPSMEEFREFNKYLAYMESKGAHRAGLAKVIPPKEWKPRQCYDDIDNLLIPAPIQQMVTGQSGLFTQYNIQKKAMTVKEFRQLANSGKYCTPRYLDYEDLERKYWKNLTFVAPIYGADINGSIYDEGVDEWNIARLNTVLDVVEEECGISIEGVNTPYLYFGMWKTTFAWHTEDMDLYSINYLHFGEPKSWYAIPPEHGKRLERLAQGFFPSSSQGCDAFLRHKMTLISPSVLKKYGIPFDKITQEAGEFMITFPYGYHAGFNHGFNCAESTNFATVRWIDYGKVAKLCTCRKDMVKISMDIFVRKFQPDRYQLWKQGKDIYTIDHTKPTPASTPEVKAWLQRRRKVRKASRSFQCARSTSKRPKADEEEEVSDEVDGAEVPNPDSVTDDLKVSEKSEAAVKLRNTEASSEEESSASRMQVEQNLSDHIKLSGNSCLSTSVTEDIKTEDDKAYAYRSVPSISSEADDSIPLSSGYEKPEKSDPSELSWPKSPESCSSVAESNGVLTEGEESDVESHGNGLEPGEIPAVPSGERNSFKVPSIAEGENKTSKSWRHPLSRPPARSPMTLVKQQAPSDEELPEVLSIEEEVEETESWAKPLIHLWQTKSPNFAAEQEYNATVARMKPHCAICTLLMPYHKPDSSNEENDARWETKLDEVVTSEGKTKPLIPEMCFIYSEENIEYSPPNAFLEEDGTSLLISCAKCCVRVHASCYGIPSHEICDGWLCARCKRNAWTAECCLCNLRGGALKQTKNNKWAHVMCAVAVPEVRFTNVPERTQIDVGRIPLQRLKLKCIFCRHRVKRVSGACIQCSYGRCPASFHVTCAHAAGVLMEPDDWPYVVNITCFRHKVNPNVKSKACEKVISVGQTVITKHRNTRYYSCRVMAVTSQTFYEVMFDDGSFSRDTFPEDIVSRDCLKLGPPAEGEVVQVKWPDGKLYGAKYFGSNIAHMYQVEFEDGSQIAMKREDIYTLDEELPKRVKARFSTASDMRFEDTFYGADIIQGERKRQRVLSSRFKNEYVADPVYRTFLKSSFQKKCQKRQ | 1.333 |
| ADT2_HUMAN (protein, UniProt P05141 1-298, looked up) ADP/ATP translocase 2: MTDAAVSFAKDFLAGGVAAAISKTAVAPIERVKLLLQVQHASKQITADKQYKGIIDCVVRIPKEQGVLSFWRGNLANVIRYFPTQALNFAFKDKYKQIFLGGVDKRTQFWLYFAGNLASGGAAGATSLCFVYPLDFARTRLAADVGKAGAEREFRGLGDCLVKIYKSDGIKGLYQGFNVSVQGIIIYRAAYFGIYDTAKGMLPDPKNTHIVISWMIAQTVTAVAGLTSYPFDTVRRRMMMQSGRKGTDIMYTGTLDCWRKIARDEGGKAFFKGAWSNVLRGMGGAFVLVLYDEIKKYT | 0.8333 |
| CPSF1_HUMAN (protein, UniProt Q10570 1-1443, looked up) Cleavage and polyadenylation …: MYAVYKQAHPPTGLEFSMYCNFFNNSERNLVVAGTSQLYVYRLNRDAEALTKNDRSTEGKAHREKLELAASFSFFGNVMSMASVQLAGAKRDALLLSFKDAKLSVVEYDPGTHDLKTLSLHYFEEPELRDGFVQNVHTPRVRVDPDGRCAAMLVYGTRLVVLPFRRESLAEEHEGLVGEGQRSSFLPSYIIDVRALDEKLLNIIDLQFLHGYYEPTLLILFEPNQTWPGRVAVRQDTCSIVAISLNITQKVHPVIWSLTSLPFDCTQALAVPKPIGGVVVFAVNSLLYLNQSVPPYGVALNSLTTGTTAFPLRTQEGVRITLDCAQATFISYDKMVISLKGGEIYVLTLITDGMRSVRAFHFDKAAASVLTTSMVTMEPGYLFLGSRLGNSLLLKYTEKLQEPPASAVREAADKEEPPSKKKRVDATAGWSAAGKSVPQDEVDEIEVYGSEAQSGTQLATYSFEVCDSILNIGPCANAAVGEPAFLSEEFQNSPEPDLEIVVCSGHGKNGALSVLQKSIRPQVVTTFELPGCYDMWTVIAPVRKEEEDNPKGEGTEQEPSTTPEADDDGRRHGFLILSREDSTMILQTGQEIMELDTSGFATQGPTVFAGNIGDNRYIVQVSPLGIRLLEGVNQLHFIPVDLGAPIVQCAVADPYVVIMSAEGHVTMFLLKSDSYGGRHHRLALHKPPLHHQSKVITLCLYRDLSGMFTTESRLGGARDELGGRSGPEAEGLGSETSPTVDDEEEMLYGDSGSLFSPSKEEARRSSQPPADRDPAPFRAEPTHWCLLVRENGTMEIYQLPDWRLVFLVKNFPVGQRVLVDSSFGQPTTQGEARREEATRQGELPLVKEVLLVALGSRQSRPYLLVHVDQELLIYEAFPHDSQLGQGNLKVRFKKVPHNINFREKKPKPSKKKAEGGGAEEGAGARGRVARFRYFEDIYGYSGVFICGPSPHWLLVTGRGALRLHPMAIDGPVDSFAPFHNVNCPRGFLYFNRQGELRISVLPAYLSYDAPWPVRKIPLRCTAHYVAYHVESKVYAVATSTNTPCARIPRMTGEEKEFETIERDERYIHPQQEAFSIQLISPVSWEAIPNARIELQEWEHVTCMKTVSLRSEETVSGLKGYVAAGTCLMQGEEVTCRGRILIMDVIEVVPEPGQPLTKNKFKVLYEKEQKGPVTALCHCNGHLVSAIGQKIFLWSLRASELTGMAFIDTQLYIHQMISVKNFILAADVMKSISLLRYQEESKTLSLVSRDAKPLEVYSVDFMVDNAQLGFLVSDRDRNLMVYMYLPEAKESFGGMRLLRRADFHVGAHVNTFWRTPCRGATEGLSKKSVVWENKHITWFATLDGGIGLLLPMQEKTYRRLLMLQNALTTMLPHHAGLNPRAFRMLHVDRRTLQNAVRNVLDGELLNRYLYLSTMERSELAKKIGTTPDIILDDLLETDRVTAHF | 0.6923 |
| EF1A1_HUMAN (protein, UniProt P68104 2-462, looked up) Elongation factor 1-alpha 1: GKEKTHINIVVIGHVDSGKSTTTGHLIYKCGGIDKRTIEKFEKEAAEMGKGSFKYAWVLDKLKAERERGITIDISLWKFETSKYYVTIIDAPGHRDFIKNMITGTSQADCAVLIVAAGVGEFEAGISKNGQTREHALLAYTLGVKQLIVGVNKMDSTEPPYSQKRYEEIVKEVSTYIKKIGYNPDTVAFVPISGWNGDNMLEPSANMPWFKGWKVTRKDGNASGTTLLEALDCILPPTRPTDKPLRLPLQDVYKIGGIGTVPVGRVETGVLKPGMVVTFAPVNVTTEVKSVEMHHEALSEALPGDNVGFNVKNVSVKDVRRGNVAGDSKNDPPMEAAGFTAQVIILNHPGQISAGYAPVLDCHTAHIACKFAELKEKIDRRSGKKLEDGPKFLKSGDAAIVDMVPGKPMCVESFSDYPPLGRFAVRDMRQTVAVGVIKAVDKKAAGAGKVTKSAQKAQKAK | 0.9444 |
| KDM4A_HUMAN (protein, UniProt O75164 2-1064, looked up) Lysine-specific demethylase 4A: ASESETLNPSARIMTFYPTMEEFRNFSRYIAYIESQGAHRAGLAKVVPPKEWKPRASYDDIDDLVIPAPIQQLVTGQSGLFTQYNIQKKAMTVREFRKIANSDKYCTPRYSEFEELERKYWKNLTFNPPIYGADVNGTLYEKHVDEWNIGRLRTILDLVEKESGITIEGVNTPYLYFGMWKTSFAWHTEDMDLYSINYLHFGEPKSWYSVPPEHGKRLERLAKGFFPGSAQSCEAFLRHKMTLISPLMLKKYGIPFDKVTQEAGEFMITFPYGYHAGFNHGFNCAESTNFATRRWIEYGKQAVLCSCRKDMVKISMDVFVRKFQPERYKLWKAGKDNTVIDHTLPTPEAAEFLKESELPPRAGNEEECPEEDMEGVEDGEEGDLKTSLAKHRIGTKRHRVCLEIPQEVSQSELFPKEDLSSEQYEMTECPAALAPVRPTHSSVRQVEDGLTFPDYSDSTEVKFEELKNVKLEEEDEEEEQAAAALDLSVNPASVGGRLVFSGSKKKSSSSLGSGSSRDSISSDSETSEPLSCRAQGQTGVLTVHSYAKGDGRVTVGEPCTRKKGSAARSFSERELAEVADEYMFSLEENKKSKGRRQPLSKLPRHHPLVLQECVSDDETSEQLTPEEEAEETEAWAKPLSQLWQNRPPNFEAEKEFNETMAQQAPHCAVCMIFQTYHQVEFGGFNQNCGNASDLAPQKQRTKPLIPEMCFTSTGCSTDINLSTPYLEEDGTSILVSCKKCSVRVHASCYGVPPAKASEDWMCSRCSANALEEDCCLCSLRGGALQRANDDRWVHVSCAVAILEARFVNIAERSPVDVSKIPLPRFKLKCIFCKKRRKRTAGCCVQCSHGRCPTAFHVSCAQAAGVMMQPDDWPFVVFITCFRHKIPNLERAKGALQSITAGQKVISKHKNGRFYQCEVVRLTTETFYEVNFDDGSFSDNLYPEDIVSQDCLQFGPPAEGEVVQVRWTDGQVYGAKFVASHPIQMYQVEFEDGSQLVVKRDDVYTLDEELPKRVKSRLSVASDMRFNEIFTEKEVKQEKKRQRVINSRYREDYIEPALYRAIME | 1.184 |
| RBMX_HUMAN (protein, UniProt P38159 1-391, looked up) RNA-binding motif protein, X …: MVEADRPGKLFIGGLNTETNEKALEAVFGKYGRIVEVLLMKDRETNKSRGFAFVTFESPADAKDAARDMNGKSLDGKAIKVEQATKPSFESGRRGPPPPPRSRGPPRGLRGGRGGSGGTRGPPSRGGHMDDGGYSMNFNMSSSRGPLPVKRGPPPRSGGPPPKRSAPSGPVRSSSGMGGRAPVSRGRDSYGGPPRREPLPSRRDVYLSPRDDGYSTKDSYSSRDYPSSRDTRDYAPPPRDYTYRDYGHSSSRDDYPSRGYSDRDGYGRDRDYSDHPSGGSYRDSYESYGNSRSAPPTRGPPPSYGGSSRYDDYSSSRDGYGGSRDSYSSSRSDLYSSGRDRVGRQERGLPPSMERGYPPPRDSYSSSSRGAPRGGGRGGSRSDRGGGRSRY | 200 |
| MPCP_HUMAN (protein, UniProt Q00325 50-362, looked up) Solute carrier family 25 …: AVEEQYSCDYGSGRFFILCGLGGIISCGTTHTALVPLDLVKCRMQVDPQKYKGIFNGFSVTLKEDGVRGLAKGWAPTFLGYSMQGLCKFGFYEVFKVLYSNMLGEENTYLWRTSLYLAASASAEFFADIALAPMEAAKVRIQTQPGYANTLRDAAPKMYKEEGLKAFYKGVAPLWMRQIPYTMMKFACFERTVEALYKFVVPKPRSECSKPEQLVVTFVAGYIAGVFCAIVSHPADSVVSVLNKEKGSSASLVLKRLGFKGVWKGLFARIIMIGTLTALQWFIYDSVKVYFRLPRPPPPEMPESLKKKLGLTQ | 1 |
